± gives the uncertainty stated by the source.
Assay: protein stability index of a GFP-peptide fusion (yeast GPS) (PSI 1-4); higher = more stable; sorted into four equal gates, so the index is relative within each strain
In short: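 For each peptide, the protein stability index sums the read frequency in every gate after multiplying it by the gate number. Read frequencies came from plasmids that were PCR-amplified from each gate and Illumina-sequenced, with reads assigned to strains by barcodes. The gates were four equal bins of GFP/Cherry fluorescence ratio applied to mid-log yeast in leucine-free medium carrying a pooled library of tiled 17-residue yeast protein peptides fused downstream of GFP on a Cherry-expressing plasmid.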

Row | Sequence | protein stability index (doa10∆) | protein stability index (pdr5∆) | protein stability index (san1∆) | protein stability index (ubr1∆)
1 | SKNTAVSKVQKRKVLEL [SRP72] | 2.66 ± 0.11 | 2.1 ± 0.16 |  | 
2 | SMSGRISAKDMGQGLCN [BRR2] | 3 ± 0.11 | 3.03 ± 0.084 | 3.02 ± 0.076 | 3.19 ± 0.078
3 | NRLLPNLPEEERKQIHE [GRR1] | 1.26 ± 0.14 | 1.41 ± 0.079 | 1.71 ± 0.15 | 2.59 ± 0.13
4 | NKIDQSLQYIERQQDEL [YJL041W/NSP1] | 3.18 ± 0.15 | 3.19 ± 0.12 | 3.25 ± 0.096 | 2.93 ± 0.061
5 | AVIAAIMQEAGLRAVRK [RPT3] |  | 1.15 ± 0.19 |  | 
6 | LFEQLQTVSNKEDAKAT [SRP54] | 3.41 ± 0.14 | 3.04 ± 0.1 | 3.18 ± 0.054 | 3.18 ± 0.059
7 | NIPWDVPGMPAPIKKII [PRP8] | 2.75 ± 0.3 | 2.91 ± 0.19 | 2.8 ± 0.28 | 3.05 ± 0.2
8 | KSRPDRPKPVSPPCYII [SNF5] | 2.93 ± 0.063 | 3.08 ± 0.057 | 2.98 ± 0.069 | 2.95 ± 0.041
9 | SVKEDVKNNQELDQEYR [SMC4] |  | 3.53 ± 0.25 |  | 3.36 ± 0.14
10 | IIGKTTPISPDEEELGQ [RPB2] |  |  | 2.81 ± 0.23 | 2.98 ± 0.29
11 | AARKAEKAKSAGVQGSK [RPL24B] | 3.27 ± 0.087 | 3.11 ± 0.068 | 3.18 ± 0.065 | 3.29 ± 0.042
12 | SMTATADVLAMAKVEVN [RIP1] | 1.99 ± 0.12 | 2.4 ± 0.11 | 2.43 ± 0.15 | 2 ± 0.074
13 | DKLKDIVGQTSRTVTPA [ITC1] | 3.22 ± 0.059 | 3.13 ± 0.046 | 3.19 ± 0.047 | 2.96 ± 0.052
14 | NILWRIADKTTYDKETI [SIR4] | 3.2 ± 0.12 | 3.16 ± 0.084 | 2.98 ± 0.1 | 3.17 ± 0.052
15 | ISWCSLSETNGLHKFVK [PRE10] | 2.38 ± 0.089 | 2.73 ± 0.12 | 2.82 ± 0.11 | 2.44 ± 0.11
16 | DALKVVLRTALVHDGLA [RPS12] | 2.5 ± 0.17 | 2.51 ± 0.14 | 2.72 ± 0.098 | 3.25 ± 0.1
17 | RSNFRVNLSQEALQYDP [SNU114] | 2.69 ± 0.074 | 2.31 ± 0.09 | 2.93 ± 0.047 | 3.1 ± 0.088
18 | ESPLSVAIQQGDIKPEF [YML103C/NUP188] | 2.23 ± 0.11 | 1.44 ± 0.08 | 1.95 ± 0.11 | 2.38 ± 0.075
19 | NHFSLSYKDSGLWGFST [COR1] | 2.96 ± 0.077 | 3.23 ± 0.073 | 3.15 ± 0.046 | 3.02 ± 0.054
20 | HVIQIPLNKPLLTEELA [TAF14] | 2.2 ± 0.053 | 2.39 ± 0.037 | 2.49 ± 0.053 | 2.32 ± 0.039
21 | IEQCKHPLHELIIQYPP [ISW2] | 3.19 ± 0.1 | 2.82 ± 0.094 | 2.59 ± 0.1 | 3.1 ± 0.068
22 | EINSEDYDNKTKLIGVL [SRP68] | 3.2 ± 0.15 | 3.04 ± 0.18 | 3.25 ± 0.076 | 3.02 ± 0.12
23 | KQERLKENEESLTPTQS [PRP28] | 3.13 ± 0.092 | 3.4 ± 0.07 | 3.22 ± 0.12 | 3.15 ± 0.074
24 | VAQLKPFFKYIDDANVT [RPC37] | 2.81 ± 0.078 | 2.9 ± 0.07 | 2.9 ± 0.062 | 2.8 ± 0.07
25 | PEIPLVVSTDLESIQKT [RPL4A] | 2.96 ± 0.071 | 3.05 ± 0.086 | 3.16 ± 0.052 | 2.81 ± 0.062
26 | KTSSQTSLSSKDLSNYR [YMR153W/NUP53] | 2.67 ± 0.055 | 2.54 ± 0.06 | 2.58 ± 0.089 | 2.65 ± 0.039
27 | MKPKAEKESDDGLLEYL [SMC4] | 3.58 ± 0.17 | 3.37 ± 0.16 | 3.31 ± 0.18 | 

Row | Sequence | protein stability index (doa10∆) | protein stability index (pdr5∆) | protein stability index (san1∆) | protein stability index (ubr1∆)
28 | EDDESLGHKELKVRKGH [RPB2] | 2.29 ± 0.071 | 2.54 ± 0.067 | 2.45 ± 0.076 | 2.97 ± 0.049
29 | WSSLLNEGLVEYIDAEE [RPB2] | 2.84 ± 0.21 | 3.44 ± 0.17 |  | 2.97 ± 0.16
30 | QQQQQQQQPQPQYNMNM [PGD1] | 2.33 ± 0.07 | 2.79 ± 0.065 | 2.67 ± 0.11 | 2.81 ± 0.16
31 | DRFKYRSVDRAGRKFKS [POP4] | 3.04 ± 0.2 | 3.24 ± 0.18 | 3.52 ± 0.097 | 3.55 ± 0.16
32 | GIACAGKGLQSAIDVLD [RPN2] | 2.15 ± 0.068 | 2.52 ± 0.077 | 2.48 ± 0.1 | 2.75 ± 0.071
33 | RSPRVVTNALDNIDEKV [NUT1] | 2.92 ± 0.056 | 2.79 ± 0.054 | 2.77 ± 0.058 | 3.03 ± 0.058
34 | TQDESEIKDAETSCDNY [SMC4] | 2.26 ± 0.083 | 2.62 ± 0.073 | 3.4 ± 0.056 | 2.98 ± 0.053
35 | RQQKLLLETKLRQQYEI [SWI1] | 3.06 ± 0.11 | 2.93 ± 0.1 | 3.17 ± 0.068 | 2.91 ± 0.11
36 | NTDLKDIIQGNPLMYSG [PCI8] | 2.84 ± 0.051 | 3.13 ± 0.085 | 3.21 ± 0.11 | 3.2 ± 0.086
37 | GEGPFTVKFKHMDYDGN [YMR129W/POM152] | 2.79 ± 0.11 | 2.86 ± 0.068 | 2.78 ± 0.11 | 2.78 ± 0.059
38 | RQLTSMEFSNLYKEFFN [NUT1] | 2.48 ± 0.079 | 2.59 ± 0.068 | 2.85 ± 0.089 | 2.25 ± 0.067
39 | MVQQLSLFGSIGDDGYD [SRB5] | 3.17 ± 0.1 | 3.26 ± 0.13 | 3.16 ± 0.057 | 3.47 ± 0.085
40 | TWIQQFKSTMLQVSEKD [ARP7] | 1.89 ± 0.065 | 1.86 ± 0.066 | 1.27 ± 0.14 | 1.73 ± 0.053
41 | RSDLQSKIQEIESIRSC [YIL149C/MLP2] | 1.89 ± 0.058 | 2.79 ± 0.09 | 2.67 ± 0.099 | 2.52 ± 0.089
42 | ATNRPDTLDPALLRPGR [RPT4] | 2.91 ± 0.12 | 3.18 ± 0.14 | 2.89 ± 0.1 | 3.1 ± 0.14
43 | IVAQSEVEVSTRDLFDL [RPO31] | 3.07 ± 0.074 | 3.34 ± 0.083 | 3.3 ± 0.059 | 3.2 ± 0.067
44 | MEGDDLFDEFGNLIGVD [SNU114] | 3.37 ± 0.2 |  |  | 
45 | VEILFEAGASAELDDCR [RPO21] | 2.94 ± 0.14 | 3.44 ± 0.15 | 2.93 ± 0.074 | 3.49 ± 0.16
46 | NVKEITEKLKISPESVF [SMC3] | 1.7 ± 0.086 | 2.18 ± 0.069 | 2.32 ± 0.13 | 2.04 ± 0.052
47 | LSIDKVLKKPNRAMEYD [RET1] | 3.01 ± 0.18 | 2.56 ± 0.16 | 3.18 ± 0.2 | 1.98 ± 0.28
48 | EIGGSDLKESMVKGLLK [ECM29] | 2.63 ± 0.23 | 3.53 ± 0.16 |  | 2.76 ± 0.21
49 | IETVDDKLKDIVGQTSR [ITC1] | 3.25 ± 0.07 | 3.01 ± 0.075 | 3.17 ± 0.086 | 3.03 ± 0.14
50 | EKADYEDEMMHEEDQKT [RPN12] |  | 2.97 ± 0.15 |  | 3.03 ± 0.17
51 | MNNGSGRYLLTPPDDLH [SRB8] | 2.41 ± 0.06 | 2 ± 0.044 | 2.29 ± 0.13 | 2.63 ± 0.054
52 | GSGSRLNRLPAASLGDM [RPL23A] | 2.28 ± 0.17 | 2.6 ± 0.18 | 2.66 ± 0.24 | 3.12 ± 0.22
53 | DDTKETVYISSIALLKM [RPN11] | 3.09 ± 0.087 | 2.77 ± 0.084 | 2.71 ± 0.048 | 2.93 ± 0.055
